Experiments:
Conditions in all cases: both partners purified
[1] = target: T1, Human Cdc42 GTPase, wild type, residues 1-179 (human, UniProt P60953 1-179); assay: stopped-flow fluorescence; ka from kobs against [GBD]; 0.1 μM mantGppNHp·Cdc42 in one syringe, GBD in excess in the second; 50 mM sodium phosphate pH 7.0, 5 mM MgCl2, 1 mM TECP, 25 °C
T1 construct: four extra residues (Gly-Ser-Phe-Thr) from the expression vector left at the N-terminus of Cdc42; human Cdc42, residues 1-179; also called Cdc42WT; wild-type Cdc42; source: E. coli Rosetta, purified (HisTrap, TEV cleavage, second HisTrap, Superdex 75); not shown: His6, N-terminal, cleaved

[2] = target: T2, Human Cdc42 (residues 1-179) with Glu31, Asn39, Glu62, Asp63, Asp65 and Gln74 all substituted by Lys (human, UniProt P60953 1-179, Glu31 substituted by Lys | Asn39 substituted by Lys | Glu62 substituted by Lys …); assay: as above
T2 construct: four extra residues (Gly-Ser-Phe-Thr) from the expression vector left at the N-terminus of Cdc42; human Cdc42, residues 1-179, with the 6K mutations around the subsite for GBD Csub; Loaded with mantGppNHp or GppNHp; also called Cdc42_(6K); source: E. coli Rosetta, purified (HisTrap, TEV cleavage, second HisTrap, Superdex 75); not shown: His6, N-terminal, cleaved

[3] = target: T1, Human Cdc42 GTPase, wild type, residues …; assay: other fluorescence titration; Kd from the fluorescence difference before mixing and at equilibrium at seven [GBD] values on the stopped-flow instrument; 0.1 μM mantGppNHp·Cdc42; 50 mM sodium phosphate pH 7.0, 5 mM MgCl2, 1 mM TECP, 25 °C; kd deduced as the product of Kd and ka
[4] = target: T2, Human Cdc42 (residues 1-179) with …; assay: as above
[5] = target: T1, Human Cdc42 GTPase, wild type, residues …; assay: stopped-flow fluorescence; ka from kobs against [GBD] as in buffer, with 1 M urea added
[6] = target: T1, Human Cdc42 GTPase, wild type, residues …; assay: stopped-flow fluorescence; kd measured directly by displacement: 0.1 μM mantGppNHp·Cdc42 and 1 μM GBD mixed with 20 μM GppNHp·Cdc42; 50 mM sodium phosphate pH 7.0, 5 mM MgCl2, 1 mM TECP, 25 °C
[7] = target: T2, Human Cdc42 (residues 1-179) with …; assay: stopped-flow fluorescence; ka from kobs against [GBD] as in buffer, with 1 M urea added
[8] = target: T2, Human Cdc42 (residues 1-179) with …; assay: stopped-flow fluorescence; ka from kobs against [GBD] as in buffer, with 2 M urea added

T2 sequence (P60953 other isoform, or with tags, fused parts or gaps with the stated changes): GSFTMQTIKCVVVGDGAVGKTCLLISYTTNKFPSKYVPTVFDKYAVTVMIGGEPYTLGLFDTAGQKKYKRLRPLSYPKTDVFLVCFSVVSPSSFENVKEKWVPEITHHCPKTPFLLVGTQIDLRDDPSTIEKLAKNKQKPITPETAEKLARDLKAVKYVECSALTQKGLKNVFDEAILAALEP
T1 sequence (P60953 other isoform, or with tags, fused parts or gaps): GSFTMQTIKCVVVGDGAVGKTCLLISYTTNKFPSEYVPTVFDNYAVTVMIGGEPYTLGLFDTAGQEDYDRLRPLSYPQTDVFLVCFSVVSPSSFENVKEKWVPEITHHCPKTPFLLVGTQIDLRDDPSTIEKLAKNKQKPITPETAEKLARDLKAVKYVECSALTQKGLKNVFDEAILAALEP

kon [1] | kon [2] | fold increase in kd relative to GBDWT [3] | fold weakening in binding affinity relative to GBDWT [3] | fold decrease in kd relative to Cdc42WT [4] | fold increase in binding affinity relative to Cdc42WT [4] | fold decrease of ka at 1 M urea relative to no urea [5] | Binder | also measured
97000 M⁻¹ s⁻¹ | – | 7 fold | – | – | – | – | WASP GBD (residues 228-298) with Lys230Lys231Lys232 changed to Glu (domain or fragment, human, two extra residues (Gly-Ser) from the thrombin recognition site left at the N-terminus of GBD; also called GBD3E; source: E. coli Rosetta, purified (GSTrap, thrombin, 70 °C heat step, Superdex 75); not shown: GST, N-terminal, cleaved) GSSGEEEISKADIGAPSGFKHVSHVGWDPQNGFDVNNLDPDLRSLFSRAGISEAQLTDAETSKLIYDFIEDQG | –
920000 M⁻¹ s⁻¹ | 1.09e+07 M⁻¹ s⁻¹ | 2 fold | 13 fold | 121 fold | ~1500 fold | 3.1 fold | WASP GBD (residues 228-298) with Lys230Lys231Lys232 substituted by Ala (domain or fragment, human, two extra residues (Gly-Ser) from the thrombin recognition site left at the N-terminus of GBD; 15N labelled for the NMR experiment; also called GBD3A; source: E. coli Rosetta, purified (GSTrap, thrombin, 70 °C heat step, Superdex 75); not shown: GST, N-terminal, cleaved) GSSGAAAISKADIGAPSGFKHVSHVGWDPQNGFDVNNLDPDLRSLFSRAGISEAQLTDAETSKLIYDFIEDQG | fold decrease of ka at 1 M urea relative to no urea [7]: 3.5 fold; fold decrease of ka at 2 M urea relative to no urea [8]: 9.2 fold; fold higher affinity than GBDWT-Cdc42WT [4]: ~100 fold

More lines, now with the values behind:

Binder | kon [1] | kon [2] | fold increase in kd relative to GBDWT [3] | fold weakening in binding affinity relative to GBDWT [3] | fold decrease in kd relative to Cdc42WT [4] | fold increase in binding affinity relative to Cdc42WT [4] | fold decrease of ka at 1 M urea relative to no urea [5] | also measured
Truncated WASP GBD (residues 238-298) with the BR segment deleted (domain or fragment, human, two extra residues (Gly-Ser) from the thrombin recognition site left at the N-terminus of GBD; also called GBDΔBR; source: E. coli Rosetta, purified (GSTrap, thrombin, 70 °C heat step, Superdex 75); not shown: GST, N-terminal, cleaved) GSIGAPSGFKHVSHVGWDPQNGFDVNNLDPDLRSLFSRAGISEAQLTDAETSKLIYDFIEDQG | 40000 M⁻¹ s⁻¹ | 4.03e+06 M⁻¹ s⁻¹ | 10 fold | 1420 fold | 16 fold | ~1500 fold | – | –
GTPase-binding domain (GBD) of the Wiskott-Aldrich Syndrome protein (WASP), wild type, residues 228-298 (domain or fragment, human, two extra residues (Gly-Ser) from the thrombin recognition site left at the N-terminus of GBD; 15N labelled for the NMR experiment; also called GBDWT; wild-type GBD; source: E. coli Rosetta, purified (GSTrap, thrombin, 70 °C heat step, Superdex 75); not shown: GST, N-terminal, cleaved) GSSGKKKISKADIGAPSGFKHVSHVGWDPQNGFDVNNLDPDLRSLFSRAGISEAQLTDAETSKLIYDFIEDQG | 5.53e+06 M⁻¹ s⁻¹ | 2.14e+07 M⁻¹ s⁻¹ | – | – | – | – | 1.6 fold | koff [6]: 0.696 ± 0.011 s⁻¹; Kd [3]: 114 ± 9 nM; koff [3]: 0.63 s⁻¹
WASP GBD (residues 228-298) with the 3A mutations plus Arg273 to Glu and Gly275 to Asp (domain or fragment, human, two extra residues (Gly-Ser) from the thrombin recognition site left at the N-terminus of GBD; also called GBD_(3A/ED); source: E. coli Rosetta, purified (GSTrap, thrombin, 70 °C heat step, Superdex 75); not shown: GST, N-terminal, cleaved) GSSGAAAISKADIGAPSGFKHVSHVGWDPQNGFDVNNLDPDLRSLFSEADISEAQLTDAETSKLIYDFIEDQG | – | – | – | – | – | – | – | fold reduction of ka relative to GBD3A [1]: 2.5 fold; fold increase of Kd relative to GBD3A [3]: 3.7 fold
